# From patent US20220402983A1 (Janssen / Centocor, published 2022)
# *1 amine or outer side, *2 acyl side, *3 side chain or, on linkers, in order; H or OH if unused. Bridges are numbered along the chain shown (N, C = ends). [ ]: non-standard residue; d: D form. (N-(imidazol-2-yl)methyl)Asn = N-(imidazol-2-yl)methyl-asparagine, O=C(C[C@H](N[*:1])C(=O)[*:2])NCc1ncc[nH]1; (N-(3-aminophenyl))Asn = N-(3-aminophenyl)-asparagine, O=C(C[C@H](N[*:1])C(=O)[*:2])Nc1cccc(N[*:3])c1; (N-(3-Pyz))Asn = N-pyrazol-3-yl-asparagine, O=C(C[C@H](N[*:1])C(=O)[*:2])Nc1cc[nH]n1; dPhe(3-NH2) = D-3-aminophenylalanine, O=C([C@@H](Cc1cccc(N[*:3])c1)N[*:1])[*:2]; Trp(7-Me) = Cc1cccc2c(C[C@H](N)C(=O)O)c[nH]c12; (N-Pyr)Asn = N-pyrrolidin-3-yl-asparagine; dPhe(4-NH2) = Nc1ccc(C[C@@H](N)C(=O)O)cc1; (N-Pip)Asn = N-piperidin-4-yl-asparagine; 2Nal = N[C@@H](Cc1ccc2ccccc2c1)C(=O)O; AEF = NCCOc1ccc(C[C@H](N)C(=O)O)cc1; αMeF = C[C@](N)(Cc1ccccc1)C(=O)O; 3Pal = N[C@@H](Cc1cccnc1)C(=O)O; Pen = CC(C)(S)[C@H](N)C(=O)O; αMeK = C[C@](N)(CCCCN)C(=O)O; αMeC = C[C@](N)(CS)C(=O)O; Thp = NC1(C(=O)O)CCOCC1; Abu = CC[C@H](N)C(=O)O
# B1: Compound No. 119 (peptide)
# peptide: CNTXQCFXKKNF
# modifications: Ac-[Cys]-N-T-[W(7-Me)]-Q-[aMeCys]-Phe[4-(2-aminoethoxy)]-[2-Nal]-[a-MeLys]-[Lys(Ac)]-N-[a-MePhe]-NH2; cyclized: Cys-aMeCys disulfide bond
# B2: Compound No. 133 (peptide)
# peptide: Ac-[dR][Pen]QTWQ[Pen][AEF][2Nal][Thp]EN[(N-(3-Pyz))Asn]-NH2
# modifications: disulfide 2-7
# SMILES: CC(=O)N[C@H](CCCNC(=N)N)C(=O)N[C@@H]1C(=O)N[C@@H](CCC(N)=O)C(=O)N[C@@H]([C@@H](C)O)C(=O)N[C@@H](Cc2c[nH]c3ccccc23)C(=O)N[C@@H](CCC(N)=O)C(=O)N[C@H](C(=O)N[C@@H](Cc2ccc(OCCN)cc2)C(=O)N[C@@H](Cc2ccc3ccccc3c2)C(=O)NC2(C(=O)N[C@@H](CCC(=O)O)C(=O)N[C@@H](CC(N)=O)C(=O)N[C@@H](CC(=O)Nc3cc[nH]n3)C(N)=O)CCOCC2)C(C)(C)SSC1(C)C
# B3: Compound No. 121 (peptide)
# peptide: Ac-CNTWK(Ac)[αMeC][AEF][2Nal][αMeK]K(Ac)N[Thp]-NH2
# modifications: disulfide 1-6
# SMILES: CC(=O)NCCCC[C@@H]1NC(=O)[C@H](Cc2c[nH]c3ccccc23)NC(=O)[C@H]([C@@H](C)O)NC(=O)[C@H](CC(N)=O)NC(=O)[C@@H](NC(C)=O)CSSC[C@@](C)(C(=O)N[C@@H](Cc2ccc(OCCN)cc2)C(=O)N[C@@H](Cc2ccc3ccccc3c2)C(=O)N[C@@](C)(CCCCN)C(=O)N[C@@H](CCCCNC(C)=O)C(=O)N[C@@H](CC(N)=O)C(=O)NC2(C(N)=O)CCOCC2)NC1=O
# B4: Compound No. 124 (peptide)
# peptide: Ac-[dR][Pen]NT[Trp(7-Me)]K(Ac)[Pen][AEF][2Nal][Thp]EN[αMeF]-NH2
# modifications: disulfide 2-7
# SMILES: CC(=O)NCCCC[C@@H]1NC(=O)[C@H](Cc2c[nH]c3c(C)cccc23)NC(=O)[C@H]([C@@H](C)O)NC(=O)[C@H](CC(N)=O)NC(=O)[C@@H](NC(=O)[C@@H](CCCNC(=N)N)NC(C)=O)C(C)(C)SSC(C)(C)[C@@H](C(=O)N[C@@H](Cc2ccc(OCCN)cc2)C(=O)N[C@@H](Cc2ccc3ccccc3c2)C(=O)NC2(C(=O)N[C@@H](CCC(=O)O)C(=O)N[C@@H](CC(N)=O)C(=O)N[C@@](C)(Cc3ccccc3)C(N)=O)CCOCC2)NC1=O
# B5: Compound No. 122 (peptide)
# peptide: Ac-CNTWK(Ac)[αMeC][AEF][2Nal][αMeK]K(Ac)N[αMeF]-NH2
# modifications: disulfide 1-6
# SMILES: CC(=O)NCCCC[C@@H]1NC(=O)[C@H](Cc2c[nH]c3ccccc23)NC(=O)[C@H]([C@@H](C)O)NC(=O)[C@H](CC(N)=O)NC(=O)[C@@H](NC(C)=O)CSSC[C@@](C)(C(=O)N[C@@H](Cc2ccc(OCCN)cc2)C(=O)N[C@@H](Cc2ccc3ccccc3c2)C(=O)N[C@@](C)(CCCCN)C(=O)N[C@@H](CCCCNC(C)=O)C(=O)N[C@@H](CC(N)=O)C(=O)N[C@@](C)(Cc2ccccc2)C(N)=O)NC1=O
# B6: Compound No. 116 (peptide)
# peptide: Ac-[Pen]NT[Trp(7-Me)]K(Ac)[Pen][AEF][2Nal][αMeK]K(Ac)N[αMeF][3Pal]-NH2
# modifications: disulfide 1-6
# SMILES: CC(=O)NCCCC[C@@H]1NC(=O)[C@H](Cc2c[nH]c3c(C)cccc23)NC(=O)[C@H]([C@@H](C)O)NC(=O)[C@H](CC(N)=O)NC(=O)[C@@H](NC(C)=O)C(C)(C)SSC(C)(C)[C@@H](C(=O)N[C@@H](Cc2ccc(OCCN)cc2)C(=O)N[C@@H](Cc2ccc3ccccc3c2)C(=O)N[C@@](C)(CCCCN)C(=O)N[C@@H](CCCCNC(C)=O)C(=O)N[C@@H](CC(N)=O)C(=O)N[C@@](C)(Cc2ccccc2)C(=O)N[C@@H](Cc2cccnc2)C(N)=O)NC1=O
# B7: Compound No. 115 (peptide)
# peptide: Ac-[Pen]NT[Trp(7-Me)]K(Ac)[Pen][AEF][2Nal][αMeK]K(Ac)N[αMeF][dPhe(3-NH2)]-NH2
# modifications: disulfide 1-6
# SMILES: CC(=O)NCCCC[C@@H]1NC(=O)[C@H](Cc2c[nH]c3c(C)cccc23)NC(=O)[C@H]([C@@H](C)O)NC(=O)[C@H](CC(N)=O)NC(=O)[C@@H](NC(C)=O)C(C)(C)SSC(C)(C)[C@@H](C(=O)N[C@@H](Cc2ccc(OCCN)cc2)C(=O)N[C@@H](Cc2ccc3ccccc3c2)C(=O)N[C@@](C)(CCCCN)C(=O)N[C@@H](CCCCNC(C)=O)C(=O)N[C@@H](CC(N)=O)C(=O)N[C@@](C)(Cc2ccccc2)C(=O)N[C@H](Cc2cccc(N)c2)C(N)=O)NC1=O
# B8: Compound No. 137 (peptide)
# peptide: Ac-[dR][Pen]QTWQ[Pen][AEF][2Nal][Thp]EN[(N-(imidazol-2-yl)methyl)Asn]-NH2
# modifications: disulfide 2-7
# SMILES: CC(=O)N[C@H](CCCNC(=N)N)C(=O)N[C@@H]1C(=O)N[C@@H](CCC(N)=O)C(=O)N[C@@H]([C@@H](C)O)C(=O)N[C@@H](Cc2c[nH]c3ccccc23)C(=O)N[C@@H](CCC(N)=O)C(=O)N[C@H](C(=O)N[C@@H](Cc2ccc(OCCN)cc2)C(=O)N[C@@H](Cc2ccc3ccccc3c2)C(=O)NC2(C(=O)N[C@@H](CCC(=O)O)C(=O)N[C@@H](CC(N)=O)C(=O)N[C@@H](CC(=O)NCc3ncc[nH]3)C(N)=O)CCOCC2)C(C)(C)SSC1(C)C
# B9: Compound No. 118 (peptide)
# peptide: Ac-CNT[Trp(7-Me)]K(Ac)[αMeC][AEF][2Nal][αMeK]K(Ac)N[αMeF]-NH2
# modifications: disulfide 1-6
# SMILES: CC(=O)NCCCC[C@@H]1NC(=O)[C@H](Cc2c[nH]c3c(C)cccc23)NC(=O)[C@H]([C@@H](C)O)NC(=O)[C@H](CC(N)=O)NC(=O)[C@@H](NC(C)=O)CSSC[C@@](C)(C(=O)N[C@@H](Cc2ccc(OCCN)cc2)C(=O)N[C@@H](Cc2ccc3ccccc3c2)C(=O)N[C@@](C)(CCCCN)C(=O)N[C@@H](CCCCNC(C)=O)C(=O)N[C@@H](CC(N)=O)C(=O)N[C@@](C)(Cc2ccccc2)C(N)=O)NC1=O
# B10: Compound No. 117 (peptide)
# peptide: Ac-CNT[Trp(7-Me)]K(Ac)[αMeC][AEF][2Nal][αMeK]K(Ac)N[Thp]-NH2
# modifications: disulfide 1-6
# SMILES: CC(=O)NCCCC[C@@H]1NC(=O)[C@H](Cc2c[nH]c3c(C)cccc23)NC(=O)[C@H]([C@@H](C)O)NC(=O)[C@H](CC(N)=O)NC(=O)[C@@H](NC(C)=O)CSSC[C@@](C)(C(=O)N[C@@H](Cc2ccc(OCCN)cc2)C(=O)N[C@@H](Cc2ccc3ccccc3c2)C(=O)N[C@@](C)(CCCCN)C(=O)N[C@@H](CCCCNC(C)=O)C(=O)N[C@@H](CC(N)=O)C(=O)NC2(C(N)=O)CCOCC2)NC1=O
# B11: Compound No. 120 (peptide)
# peptide: CNTXQCFXKKNX
# modifications: Ac-[Cys]-N-T-[W(7-Me)]-Q-[aMeCys]-Phe[4-(2-aminoethoxy)]-[2-Nal]-[a-MeLys]-[Lys(Ac)]-N-[THP]-NH2; cyclized: Cys-aMeCys disulfide bond
# B12: Compound No. 114 (peptide)
# peptide: Ac-[Pen]NT[Trp(7-Me)]K(Ac)[Pen][AEF][2Nal][αMeK]K(Ac)N[αMeF][dPhe(4-NH2)]-NH2
# modifications: disulfide 1-6
# SMILES: CC(=O)NCCCC[C@@H]1NC(=O)[C@H](Cc2c[nH]c3c(C)cccc23)NC(=O)[C@H]([C@@H](C)O)NC(=O)[C@H](CC(N)=O)NC(=O)[C@@H](NC(C)=O)C(C)(C)SSC(C)(C)[C@@H](C(=O)N[C@@H](Cc2ccc(OCCN)cc2)C(=O)N[C@@H](Cc2ccc3ccccc3c2)C(=O)N[C@@](C)(CCCCN)C(=O)N[C@@H](CCCCNC(C)=O)C(=O)N[C@@H](CC(N)=O)C(=O)N[C@@](C)(Cc2ccccc2)C(=O)N[C@H](Cc2ccc(N)cc2)C(N)=O)NC1=O
# B13: Compound No. 130 (peptide)
# peptide: Ac-[dR][Pen]QTWQ[Pen][AEF][2Nal][Thp]EN[(N-(3-aminophenyl))Asn]-NH2
# modifications: disulfide 2-7
# SMILES: CC(=O)N[C@H](CCCNC(=N)N)C(=O)N[C@@H]1C(=O)N[C@@H](CCC(N)=O)C(=O)N[C@@H]([C@@H](C)O)C(=O)N[C@@H](Cc2c[nH]c3ccccc23)C(=O)N[C@@H](CCC(N)=O)C(=O)N[C@H](C(=O)N[C@@H](Cc2ccc(OCCN)cc2)C(=O)N[C@@H](Cc2ccc3ccccc3c2)C(=O)NC2(C(=O)N[C@@H](CCC(=O)O)C(=O)N[C@@H](CC(N)=O)C(=O)N[C@@H](CC(=O)Nc3cccc(N)c3)C(N)=O)CCOCC2)C(C)(C)SSC1(C)C
# Biological target: T1, human IL-23R (interleukin-23 receptor) (human, UniProt Q5VWK5 24-629)
# T1 sequence (looked up): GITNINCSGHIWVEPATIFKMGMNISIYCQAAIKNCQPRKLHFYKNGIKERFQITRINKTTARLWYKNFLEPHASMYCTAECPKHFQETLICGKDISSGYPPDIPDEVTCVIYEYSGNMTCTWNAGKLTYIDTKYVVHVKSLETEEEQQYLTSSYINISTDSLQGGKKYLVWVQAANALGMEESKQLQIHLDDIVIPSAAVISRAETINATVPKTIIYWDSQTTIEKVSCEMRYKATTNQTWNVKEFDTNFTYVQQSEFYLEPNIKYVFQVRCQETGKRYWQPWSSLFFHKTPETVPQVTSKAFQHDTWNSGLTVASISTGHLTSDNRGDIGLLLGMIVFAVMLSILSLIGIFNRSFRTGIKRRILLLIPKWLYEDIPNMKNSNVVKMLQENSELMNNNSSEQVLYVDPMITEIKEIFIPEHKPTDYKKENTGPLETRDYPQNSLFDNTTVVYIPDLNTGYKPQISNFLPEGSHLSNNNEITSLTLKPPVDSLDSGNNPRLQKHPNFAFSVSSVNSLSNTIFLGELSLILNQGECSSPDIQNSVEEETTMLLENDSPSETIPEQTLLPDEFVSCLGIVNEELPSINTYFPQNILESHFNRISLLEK
# Assay: cell-based or functional assay
row,Binder,PBMC pSTAT3 IC50 (nM)
1,B1,5.3
2,B2,21
3,Ac-[dR][Pen]QTWQ[Pen][AEF][2Nal][Thp]EN[(N-Pip)Asn]-NH2 (disulfide 2-7) [Compound No. 127],48
4,B3,41
5,B4,11
6,B5,54
7,B6,20
8,B7,39
9,B8,14
10,B9,30
11,B10,7.1
12,Ac-[dR][Abu]QTWQC[AEF][2Nal][Thp]EN[αMeF]-NH2 (thioether 2-7) [Compound No. 123],11
13,B11,4.9
14,B12,12
15,Ac-[dR][Pen]QTWQ[Pen][AEF][2Nal][Thp]EN[(N-Pyr)Asn]-NH2 (disulfide 2-7) [Compound No. 128],51
16,B13,9.2
